What all share (assay): cell-based or functional assay
The target in assay [1] is Glycoprotein VI, GPVI^a allele protein (SKTQH), on platelets of 'aa' homozygous donors (human) (UniProt Q9HCN6).
Assay [2] addresses Glycoprotein VI on human platelets of donors not sorted to one allele (random donors, 'ab' heterozygotes, or donors whose genotype is not stated) (human) (UniProt Q9HCN6).
For assay [3], the target named is Glycoprotein VI, GPVI^b allele protein (PEALN), on platelets of 'bb' homozygous donors (human) (UniProt Q9HCN6).

As to “Collagen related peptide (CRP), triple-helical peptide containing a glycine-proline-hydroxyproline repeat motif”, the platelet aggregation at a CRP concentration of 0.10 µg/ml (mean) was 71% in assay [1] and 4.6% in assay [3]. Also, the % of platelets binding annexin V at CRP 10 µg/ml in assay [2] lay within 10 to 30%.

Source of the values: US7855050.
